Experimental data published in publication PMC11574045, “A cofactor-induced repressive type of transcription factor condensation can be induced by synthetic peptides to suppress tumorigenesis” (The EMBO Journal, 2024).

B1: SNW1 (protein, UniProt Q13573 2-536, looked up)
SNW domain-containing protein …: ALTSFLPAPTQLSQDQLEAEEKARSQRSRQTSLVSSRREPPPYGYRKGWIPRLLEDFGDGGAFPEIHVAQYPLDMGRKKKMSNALAIQVDSEGKIKYDAIARQGQSKDKVIYSKYTDLVPKEVMNADDPDLQRPDEEAIKEITEKTRVALEKSVSQKVAAAMPVRAADKLAPAQYIRYTPSQQGVAFNSGAKQRVIRMVEMQKDPMEPPRFKINKKIPRGPPSPPAPVMHSPSRKMTVKEQQEWKIPPCISNWKNAKGYTIPLDKRLAADGRGLQTVHINENFAKLAEALYIADRKAREAVEMRAQVERKMAQKEKEKHEEKLREMAQKARERRAGIKTHVEKEDGEARERDEIRHDRRKERQHDRNLSRAAPDKRSKLQRNENRDISEVIALGVPNPRTSNEVQYDQRLFNQSKGMDSGFAGGEDEIYNVYDQAWRGGKDMAQSIYRPSKNLDKDMYGDDLEARIKTNRFVPDKEFSGSDRRQRGREGPVQFEEDPFGLDKFLEEAKQHGGSKRPSDSSRPKEHEHEGKKRRKE
B2: BHLHA9 (protein, UniProt Q7RTU4 1-235, looked up)
Class A basic …: MLRGAPGLGLTARKGAEDSAEDLGGPCPEPGGDSGVLGANGASCSRGEAEEPAGRRRARPVRSKARRMAANVRERKRILDYNEAFNALRRALRHDLGGKRLSKIATLRRAIHRIAALSLVLRASPAPRGPCGHLECHGPAARGDTGDTGASPPPPAGPSLARPDAARPSVPSAPRCASCPPHAPLARPSAVAEGPGLAQASGGSWRRCPGASSAGPPPWPRGYLRSAPGMGHPRS
B3: SOX10 (protein, UniProt P56693 1-466, looked up)
Transcription factor SOX-10: MAEEQDLSEVELSPVGSEEPRCLSPGSAPSLGPDGGGGGSGLRASPGPGELGKVKKEQQDGEADDDKFPVCIREAVSQVLSGYDWTLVPMPVRVNGASKSKPHVKRPMNAFMVWAQAARRKLADQYPHLHNAELSKTLGKLWRLLNESDKRPFIEEAERLRMQHKKDHPDYKYQPRRRKNGKAAQGEAECPGGEAEQGGTAAIQAHYKSAHLDHRHPGEGSPMSDGNPEHPSGQSHGPPTPPTTPKTELQSGKADPKRDGRSMGEGGKPHIDFGNVDIGEISHEVMSNMETFDVAELDQYLPPNGHPGHVSSYSAAGYGLGSALAVASGHSAWISKPPGVALPTVSPPGVDAKAQVKTETAGPQGPPHYTDQPSTSQIAYTSLSLPHYGSAFPSISRPQFDYSDHQPSGPYYGHSGQASGLYSAFSYMGPSQRPLYTAISDPSPSGPQSHSPTHWEQPVYTTLSRP
B4: BCL6B (protein, UniProt Q8N143 1-479, looked up)
B-cell CLL/lymphoma 6 member …: MGSPAAPEGALGYVREFTRHSSDVLGNLNELRLRGILTDVTLLVGGQPLRAHKAVLIACSGFFYSIFRGRAGVGVDVLSLPGGPEARGFAPLLDFMYTSRLRLSPATAPAVLAAATYLQMEHVVQACHRFIQASYEPLGISLRPLEAEPPTPPTAPPPGSPRRSEGHPDPPTESRSCSQGPPSPASPDPKACNWKKYKYIVLNSQASQAGSLVGERSSGQPCPQARLPSGDEASSSSSSSSSSSEEGPIPGPQSRLSPTAATVQFKCGAPASTPYLLTSQAQDTSGSPSERARPLPGSEFFSCQNCEAVAGCSSGLDSLVPGDEDKPYKCQLCRSSFRYKGNLASHRTVHTGEKPYHCSICGARFNRPANLKTHSRIHSGEKPYKCETCGSRFVQVAHLRAHVLIHTGEKPYPCPTCGTRFRHLQTLKSHVRIHTGEKPYHCDPCGLHFRHKSQLRLHLRQKHGAATNTKVHYHILGGP
B5: SP100 (protein, UniProt P23497 2-879, looked up)
Nuclear autoantigen Sp-100: AGGGGDLSTRRLNECISPVANEMNHLPAHSHDLQRMFTEDQGVDDRLLYDIVFKHFKRNKVEISNAIKKTFPFLEGLRDRDLITNKMFEDSQDSCRNLVPVQRVVYNVLSELEKTFNLPVLEALFSDVNMQEYPDLIHIYKGFENVIHDKLPLQESEEEEREERSGLQLSLEQGTGENSFRSLTWPPSGSPSHAGTTPPENGLSEHPCETEQINAKRKDTTSDKDDSLGSQQTNEQCAQKAEPTESCEQIAVQVNNGDAGREMPCPLPCDEESPEAELHNHGIQINSCSVRLVDIKKEKPFSNSKVECQAQARTHHNQASDIIVISSEDSEGSTDVDEPLEVFISAPRSEPVINNDNPLESNDEKEGQEATCSRPQIVPEPMDFRKLSTFRESFKKRVIGQDHDFSESSEEEAPAEASSGALRSKHGEKAPMTSRSTSTWRIPSRKRRFSSSDFSDLSNGEELQETCSSSLRRGSGSQPQEPENKKCSCVMCFPKGVPRSQEARTESSQASDMMDTMDVENNSTLEKHSGKRRKKRRHRSKVNGLQRGRKKDRPRKHLTLNNKVQKKRWQQRGRKANTRPLKRRRKRGPRIPKDENINFKQSELPVTCGEVKGTLYKERFKQGTSKKCIQSEDKKWFTPREFEIEGDRGASKNWKLSIRCGGYTLKVLMENKFLPEPPSTRKKRILESHNNTLVDPCEEHKKKNPDASVKFSEFLKKCSETWKTIFAKEKGKFEDMAKADKAHYEREMKTYIPPKGEKKKKFKDPNAPKRPPLAFFLFCSEYRPKIKGEHPGLSIDDVVKKLAGMWNNTAAADKQFYEKKAAKLKEKYKKDIAAYRAKGKPNSAKKRVVKAEKSKKKKEEEEDEEDEQEEENEEDDDK
B6: SP6 (protein, UniProt Q3SY56 1-376, looked up)
Transcription factor Sp6: MLTAVCGSLGSQHTEAPHASPPRLDLQPLQTYQGHTSPEAGDYPSPLQPGELQSLPLGPEVDFSQGYELPGASSRVTCEDLESDSPLAPGPFSKLLQPDMSHHYESWFRPTHPGAEDGSWWDLHPGTSWMDLPHTQGALTSPGHPGALQAGLGGYVGDHQLCAPPPHPHAHHLLPAAGGQHLLGPPDGAKALEVAAPESQGLDSSLDGAARPKGSRRSVPRSSGQTVCRCPNCLEAERLGAPCGPDGGKKKHLHNCHIPGCGKAYAKTSHLKAHLRWHSGDRPFVCNWLFCGKRFTRSDELQRHLQTHTGTKKFPCAVCSRVFMRSDHLAKHMKTHEGAKEEAAGAASGEGKAGGAVEPPGGKGKREAEGSVAPSN
B7: SOX7 (protein, UniProt Q9BT81 1-388, looked up)
Transcription factor SOX-7: MASLLGAYPWPEGLECPALDAELSDGQSPPAVPRPPGDKGSESRIRRPMNAFMVWAKDERKRLAVQNPDLHNAELSKMLGKSWKALTLSQKRPYVDEAERLRLQHMQDYPNYKYRPRRKKQAKRLCKRVDPGFLLSSLSRDQNALPEKRSGSRGALGEKEDRGEYSPGTALPSLRGCYHEGPAGGGGGGTPSSVDTYPYGLPTPPEMSPLDVLEPEQTFFSSPCQEEHGHPRRIPHLPGHPYSPEYAPSPLHCSHPLGSLALGQSPGVSMMSPVPGCPPSPAYYSPATYHPLHSNLQAHLGQLSPPPEHPGFDALDQLSQVELLGDMDRNEFDQYLNTPGHPDSATGAMALSGHVPVSQVTPTGPTETSLISVLADATATYYNSYSVS
B8: SND1 (protein, UniProt Q7KZF4 2-910, looked up)
Staphylococcal nuclease …: ASSAQSGGSSGGPAVPTVQRGIIKMVLSGCAIIVRGQPRGGPPPERQINLSNIRAGNLARRAAATQPDAKDTPDEPWAFPAREFLRKKLIGKEVCFTIENKTPQGREYGMIYLGKDTNGENIAESLVAEGLATRREGMRANNPEQNRLSECEEQAKAAKKGMWSEGNGSHTIRDLKYTIENPRHFVDSHHQKPVNAIIEHVRDGSVVRALLLPDYYLVTVMLSGIKCPTFRREADGSETPEPFAAEAKFFTESRLLQRDVQIILESCHNQNILGTILHPNGNITELLLKEGFARCVDWSIAVYTRGAEKLRAAERFAKERRLRIWRDYVAPTANLDQKDKQFVAKVMQVLNADAIVVKLNSGDYKTIHLSSIRPPRLEGENTQDKNKKLRPLYDIPYMFEAREFLRKKLIGKKVNVTVDYIRPASPATETVPAFSERTCATVTIGGINIAEALVSKGLATVIRYRQDDDQRSSHYDELLAAEARAIKNGKGLHSKKEVPIHRVADISGDTQKAKQFLPFLQRAGRSEAVVEYVFSGSRLKLYLPKETCLITFLLAGIECPRGARNLPGLVQEGEPFSEEATLFTKELVLQREVEVEVESMDKAGNFIGWLHIDGANLSVLLVEHALSKVHFTAERSSYYKSLLSAEEAAKQKKEKVWAHYEEQPVEEVMPVLEEKERSASYKPVFVTEITDDLHFYVQDVETGTQLEKLMENMRNDIASHPPVEGSYAPRRGEFCIAKFVDGEWYRARVEKVESPAKIHVFYIDYGNREVLPSTRLGTLSPAFSTRVLPAQATEYAFAFIQVPQDDDARTDAVDSVVRDIQNTQCLLNVEHLSAGCPHVTLQFADSKGDVGLGLVKEGLVMVEVRKEKQFQKVITEYLNAQESAKSARLNLWRYGDFRADDADEFGYSR
B9: SPZ1 (protein, UniProt Q9BXG8 1-430, looked up)
Spermatogenic leucine zipper …: MASSAKSAEMPTISKTVNPTPDPHQEYLDPRITIALFEIGSHSPSSWGSLPFLKNSSHQVTEQQTAQKFNNLLKEIKDILKNMAGFEEKITEAKELFEETNITEDVSAHKENIRGLDKINEMLSTNLPVSLAPEKEDNEKKQEMILETNITEDVSAHKENIRGLDKINEMLSTNLPVSLAPEKEDNEKKQQMIMENQNSENTAQVFARDLVNRLEEKKVLNETQQSQEKAKNRLNVQEETMKIRNNMEQLLQEAEHWSKQHTELSKLIKSYQKSQKDISETLGNNGVGFQTQPNNEVSAKHELEEQVKKLSHDTYSLQLMAALLENECQILQQRVEILKELHHQKQGTLQEKPIQINYKQDKKNQKPSEAKKVEMYKQNKQAMKGTFWKKDRSCRSLDVCLNKKACNTQFNIHVARKALRGKMRSASSLR
B10: SP110 (protein, UniProt Q9HB58 1-689, looked up)
Sp110 nuclear body protein: MFTMTRAMEEALFQHFMHQKLGIAYAIHKPFPFFEGLLDNSIITKRMYMESLEACRNLIPVSRVVHNILTQLERTFNLSLLVTLFSQINLREYPNLVTIYRSFKRVGASYEWQSRDTPILLEAPTGLAEGSSLHTPLALPPPQPPQPSCSPCAPRVSEPGTSSQQSDEILSESPSPSDPVLPLPALIQEGRSTSVTNDKLTSKMNAEEDSEEMPSLLTSTVQVASDNLIPQIRDKEDPQEMPHSPLGSMPEIRDNSPEPNDPEEPQEVSSTPSDKKGKKRKRCIWSTPKRRHKKKSLPGGTASSRHGIQKKLKRVDQVPQKKDDSTCNSTVETRAQKARTECARKSRSEEIIDGTSEMNEGKRSQKTPSTPRRVTQGAASPGHGIQEKLQVVDKVTQRKDDSTWNSEVMMRVQKARTKCARKSRLKEKKKEKDICSSSKRRFQKNIHRRGKPKSDTVDFHCSKLPVTCGEAKGILYKKKMKHGSSVKCIRNEDGTWLTPNEFEVEGKGRNAKNWKRNIRCEGMTLGELLKRKNSDECEVCCQGGQLLCCGTCPRVFHEDCHIPPVEAKRMLWSCTFCRMKRSSGSQQCHHVSKTLERQMQPQDQLIRDYGEPFQEAMWLDLVKERLITEMYTVAWFVRDMRLMFRNHKTFYKASDFGQVGLDLEAEFEKDLKDVLGFHEANDGGFWTLP

System: HEK293FT cells transfected with TF library
Assay: Screening of TF condensates based on fluorescent puncta
Assay type: cell-based
Settings: Figure 1B numerical data; TF library screen, one value per transcriptional factor
Method in brief: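 HEK293FT, PEI transfection of TF library, 60 h; ±glucose 12 h; 4% PFA fix, 0.05% Triton X-100 permeabilization, 5% BSA block; anti-Flag/anti-GAL4 overnight at 4 °C, Alexa 488 secondary 1 h; high-content imaging, 50 fields/well.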

| Molecule | Z score of condensed fraction |
| --- | --- |
| B1 | -0.7186 |
| B2 | -1.033 |
| B3 | -0.1457 |
| B4 | -0.2442 |
| B5 | -0.9758 |
| B6 | 2.974 |
| B7 | -0.1184 |
| B8 | 0.9266 |
| B9 | 0.06851 |
| B10 | -0.422 |
